{"source": "the supplement of paper PMC10126150", "note": "± gives the standard deviation of the averaged measurements.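 Further: ATP exposure 15 min at 22 °C before imaging.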", "data": [{"test_system": "ATP", "test": "switch fluorescence ratio, 500 uM ATP over buffer (Cy3 cluster intensity, sum of 5 cycles each) (fold (ratio)); higher = stronger signal-on switching upon ATP binding; sequences stand for … in TCGTCGGCAGCGTCAGATGTGTATAAGAGACAGTTTTTTTTTTTTTTTTTTTTTTTTT…TC", "conditions": "aptamer strand: ATP DNA aptamer (quencher-CACCTGGGGGAGTATTGCGGAGGAAGG + anchor), 100 nM annealed; ATP concentration: 500 uM", "outline": "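The quencher-labelled ATP aptamer, at 100 nM, was annealed to Cy3-labelled switching-strand clusters on a modified Illumina MiSeq flow-cell. The clusters were imaged in selection buffer, then after 15 min with 500 uM ATP at 22 °C, and this buffer/ATP cycle ran five times with NaOH stripping and re-annealing between runs. Per-cluster fluorescence ratios, summed target-cycle over summed buffer-cycle Cy3 intensity, were averaged per switch-domain sequence. Clusters outside 100-1000 RFU were excluded.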", "values": [{"sequence": "TTTAAGACAA", "switch fluorescence ratio": "0.9892 ± 0.0025"}, {"sequence": "TTTAAGCCGG", "switch fluorescence ratio": "1.01 ± 0.032"}, {"sequence": "TTTAAGGGA", "switch fluorescence ratio": "0.9897 ± 0.0045"}, {"sequence": "TTTAAGGGCC", "switch fluorescence ratio": "0.978 ± 0.036"}, {"sequence": "TTTAAGGTGA", "switch fluorescence ratio": "1.04 ± 0.053"}, {"sequence": "TTTAAGGTTA", "switch fluorescence ratio": "0.999 ± 0.025"}, {"sequence": "TTTAAGTCAG", "switch fluorescence ratio": "1.018 ± 0.0088"}, {"sequence": "TTTAAGTTTG", "switch fluorescence ratio": "0.989 ± 0.029"}, {"sequence": "TTTAATAAAA", "switch fluorescence ratio": "0.988 ± 0.013"}, {"sequence": "TTTAATAAGT", "switch fluorescence ratio": "0.9981 ± 0.0036"}, {"sequence": "TTTAATACGA", "switch fluorescence ratio": "1.04 ± 0.042"}, {"sequence": "TTTAATACGG", "switch fluorescence ratio": "1.04 ± 0.011"}, {"sequence": "TTTAATAGTT", "switch fluorescence ratio": "1.03 ± 0.022"}, {"sequence": "TTTAATATCT", "switch fluorescence ratio": "0.998 ± 0.015"}, {"sequence": "TTTAATATGC", "switch fluorescence ratio": "1.14 ± 0.23"}, {"sequence": "TTTAATATGT", "switch fluorescence ratio": "0.968 ± 0.024"}, {"sequence": "TTTAATCAAG", "switch fluorescence ratio": "0.951 ± 0.021"}, {"sequence": "TTTAATCACC", "switch fluorescence ratio": "1.02 ± 0.02"}, {"sequence": "TTTAATCTG", "switch fluorescence ratio": "0.962 ± 0.021"}, {"sequence": "TTTAATGCCG", "switch fluorescence ratio": "0.954 ± 0.027"}, {"sequence": "TTTAATGTAC", "switch fluorescence ratio": "1.36 ± 0.32"}, {"sequence": "TTTAATTATG", "switch fluorescence ratio": "1.02 ± 0.034"}, {"sequence": "TTTAATTGG", "switch fluorescence ratio": "1 ± 0.048"}, {"sequence": "TTTACAAGTA", "switch fluorescence ratio": "1.031 ± 0.0049"}, {"sequence": "TTTACACAGG", "switch fluorescence ratio": "1.17 ± 0.035"}, {"sequence": "TTTACAGGGT", "switch fluorescence ratio": "1.03 ± 0.036"}, {"sequence": "TTTACAGGTT", "switch fluorescence ratio": "1.11 ± 0.1"}, {"sequence": "TTTACATGCG", "switch fluorescence ratio": "0.935 ± 0.031"}, {"sequence": "TTTACATTGT", "switch fluorescence ratio": "1.01 ± 0.03"}, {"sequence": "TTTACCCCAA", "switch fluorescence ratio": "1.15 ± 0.095"}, {"sequence": "TTTACCGAAT", "switch fluorescence ratio": "1.05 ± 0.017"}, {"sequence": "TTTACCGGCG", "switch fluorescence ratio": "1.02 ± 0.051"}, {"sequence": "TTTACCTGGG", "switch fluorescence ratio": "1.01 ± 0.032"}, {"sequence": "TTTACGCGGG", "switch fluorescence ratio": "1.04 ± 0.075"}, {"sequence": "TTTACGGCCC", "switch fluorescence ratio": "1.07 ± 0.12"}, {"sequence": "TTTACGGGAA", "switch fluorescence ratio": "1.05 ± 0.007"}, {"sequence": "TTTACGGGTC", "switch fluorescence ratio": "0.981 ± 0.026"}, {"sequence": "TTTACGGGTT", "switch fluorescence ratio": "0.988 ± 0.021"}, {"sequence": "TTTACGTGAC", "switch fluorescence ratio": "1.22 ± 0.16"}, {"sequence": "TTTACGTTGC", "switch fluorescence ratio": "1.34 ± 0.47"}, {"sequence": "TTTACGTTTG", "switch fluorescence ratio": "0.9919 ± 0.0017"}, {"sequence": "TTTACTGGCA", "switch fluorescence ratio": "1.05 ± 0.076"}, {"sequence": "TTTACTTGTA", "switch fluorescence ratio": "1.01 ± 0.023"}, {"sequence": "TTTACTTTAT", "switch fluorescence ratio": "1.06 ± 0.044"}, {"sequence": "TTTAGAAACT", "switch fluorescence ratio": "1.027 ± 0.0067"}, {"sequence": "TTTAGAATAC", "switch fluorescence ratio": "1.51 ± 0.42"}, {"sequence": "TTTAGAGCGT", "switch fluorescence ratio": "0.9933 ± 0.0013"}, {"sequence": "TTTAGAGGCT", "switch fluorescence ratio": "1 ± 0.012"}, {"sequence": "TTTAGAGTGT", "switch fluorescence ratio": "1.044 ± 0.0087"}, {"sequence": "TTTAGATACG", "switch fluorescence ratio": "1.05 ± 0.014"}, {"sequence": "TTTAGATGGG", "switch fluorescence ratio": "0.989 ± 0.029"}, {"sequence": "TTTAGATTCT", "switch fluorescence ratio": "0.992 ± 0.032"}, {"sequence": "TTTAGCAACA", "switch fluorescence ratio": "1.04 ± 0.047"}, {"sequence": "TTTAGCGTGG", "switch fluorescence ratio": "1.05 ± 0.05"}, {"sequence": "TTTAGCT", "switch fluorescence ratio": "1.08 ± 0.097"}, {"sequence": "TTTAGCTGAA", "switch fluorescence ratio": "0.962 ± 0.024"}, {"sequence": "TTTAGGAAAG", "switch fluorescence ratio": "1.05 ± 0.063"}, {"sequence": "TTTAGGAAGG", "switch fluorescence ratio": "1.017 ± 0.01"}, {"sequence": "TTTAGGACGT", "switch fluorescence ratio": "0.999 ± 0.059"}, {"sequence": "TTTAGGAGTT", "switch fluorescence ratio": "0.996 ± 0.019"}, {"sequence": "TTTAGGCTGC", "switch fluorescence ratio": "1.01 ± 0.021"}, {"sequence": "TTTAGGGAGC", "switch fluorescence ratio": "1.04 ± 0.029"}, {"sequence": "TTTAGGGTAA", "switch fluorescence ratio": "1 ± 0.03"}, {"sequence": "TTTAGGGTCG", "switch fluorescence ratio": "1.007 ± 0.0016"}, {"sequence": "TTTAGGTAAT", "switch fluorescence ratio": "1.016 ± 0.0074"}, {"sequence": "TTTAGGTAT", "switch fluorescence ratio": "1 ± 0.023"}, {"sequence": "TTTAGGTCTA", "switch fluorescence ratio": "0.978 ± 0.019"}, {"sequence": "TTTAGGTTCA", "switch fluorescence ratio": "0.98 ± 0.041"}, {"sequence": "TTTAGGTTCT", "switch fluorescence ratio": "1.01 ± 0.026"}, {"sequence": "TTTAGGTTTG", "switch fluorescence ratio": "1 ± 0.066"}, {"sequence": "TTTAGTAATA", "switch fluorescence ratio": "1.03 ± 0.021"}, {"sequence": "TTTAGTACGC", "switch fluorescence ratio": "1.05 ± 0.0076"}, {"sequence": "TTTAGTAGCT", "switch fluorescence ratio": "1 ± 0.032"}, {"sequence": "TTTAGTAGGT", "switch fluorescence ratio": "1.03 ± 0.023"}, {"sequence": "TTTAGTAGTT", "switch fluorescence ratio": "1.01 ± 0.017"}, {"sequence": "TTTAGTCATG", "switch fluorescence ratio": "0.977 ± 0.035"}, {"sequence": "TTTAGTCGCG", "switch fluorescence ratio": "0.967 ± 0.039"}, {"sequence": "TTTAGTGGTT", "switch fluorescence ratio": "1.02 ± 0.044"}, {"sequence": "TTTAGTGTAT", "switch fluorescence ratio": "0.991 ± 0.04"}, {"sequence": "TTTAGTTCTG", "switch fluorescence ratio": "0.9788 ± 0.0094"}, {"sequence": "TTTAGTTGTG", "switch fluorescence ratio": "0.967 ± 0.014"}, {"sequence": "TTTATAAAGG", "switch fluorescence ratio": "1.01 ± 0.034"}, {"sequence": "TTTATAATCA", "switch fluorescence ratio": "0.967 ± 0.011"}, {"sequence": "TTTATACCAA", "switch fluorescence ratio": "1.038 ± 0.0089"}, {"sequence": "TTTATACGGC", "switch fluorescence ratio": "1.03 ± 0.014"}, {"sequence": "TTTATAGGGG", "switch fluorescence ratio": "1.08 ± 0.14"}, {"sequence": "TTTATATTAG", "switch fluorescence ratio": "0.9889 ± 0.0075"}, {"sequence": "TTTATCTAGG", "switch fluorescence ratio": "1.02 ± 0.017"}, {"sequence": "TTTATGAATG", "switch fluorescence ratio": "0.9853 ± 0.0042"}, {"sequence": "TTTATGACGT", "switch fluorescence ratio": "1 ± 0.023"}, {"sequence": "TTTATGAGCC", "switch fluorescence ratio": "1.01 ± 0.062"}, {"sequence": "TTTATGAGCG", "switch fluorescence ratio": "0.973 ± 0.028"}, {"sequence": "TTTATGAGGG", "switch fluorescence ratio": "1.02 ± 0.047"}, {"sequence": "TTTATGCCAT", "switch fluorescence ratio": "0.989 ± 0.012"}, {"sequence": "TTTATGGATC", "switch fluorescence ratio": "1.01 ± 0.05"}, {"sequence": "TTTATGGCCT", "switch fluorescence ratio": "1.02 ± 0.052"}, {"sequence": "TTTATGGCTG", "switch fluorescence ratio": "0.987 ± 0.076"}, {"sequence": "TTTATGGGG", "switch fluorescence ratio": "0.965 ± 0.08"}, {"sequence": "TTTATGTAAA", "switch fluorescence ratio": "0.9849 ± 0.0081"}, {"sequence": "TTTATGTCTC", "switch fluorescence ratio": "0.992 ± 0.029"}]}]}
